Experimental data reported in patent US8916149B2, “Preventing and treating sepsis” (University of Rochester, priority 2008, dated 2014).

How the values were obtained:
[1] = system: lipopolysaccharide (LPS)-induced pulmonary inflammation; settings: intravenous administration; cited from earlier work
human neutrophils [2] = assay: Under-agarose migration assay (directional migration); type: cell-based; settings: 10 μg/ml rhAPC
Procedure: Delta T dishes (Bioptechs, Butler, Pa.) were coated with fibronectin (FN). Plates were then rinsed with the appropriate media and allowed to air-dry. Molten agarose (Seakem GTG, FMC Bioproducts, Rockland, Me.) was prepared as described (Harler et al., J Immunol., 162:6792 (1999)). Two milliliters of the resulting gel was added to each dish and allowed to solidify at 4° C. for 5 min. Three wells that were 2 mm apart were prepared in the agarose using a template and a beveled punch that was coated with polymixin B. Care was taken to ensure that the plate bottom was not scratched. Punch sections were removed with an aspirator, and the gel was then equilibrated for one hour at 37° C. The wells were then aspirated and loaded with […] of one of the following: PBS (left well), a suspension containing approximately 200,000 cells (middle well), or a solution containing 5 pmol of fMLP (right well). […] The dishes were incubated for 60 min at 37° C., and then fixed with 10% buffered formalin. Counts were then made of the number of cells that had migrated 1 mm towards the right well (towards fMLP, directional migration), 0.5 mm towards the left and right wells (“straddle”), and 1 mm towards the left well (random migration). The experiments were repeated three times per condition.

[3] = system: patients with severe sepsis; settings: subset of patients; cited from earlier work
neutrophil = settings: without any protein coatings; cited from earlier work
human neutrophils [4] = assay: rhAPC binding to neutrophils in suspension (chromogenic substrate S-2366); settings: 1 mM Ca2+ and 1 mM Mg2+ supplemented with 1 mM Mn2+
Procedure: Control (PBS) or rhAPC-treated neutrophils were incubated with the indicated concentrations of MgCl2 and CaCl2. The LIBS of β1 and β3 integrins were detected by B44 and D3 mAb, respectively. *P<0.05 vs. PBS treated cells. […] Experiments were repeated on neutrophil preparations from three independent donors. In FIGS. 2A, 2C, 2D, 2E, and 2F, results are expressed as mean±SEM of three independent experiments.
The best characterized integrin binding motif is the RGD sequence, which is present in FN, fibrinogen, von Willebrand factor, vitronectin, and a variety of other adhesion proteins. Many integrins that bind to extracellular protein ligands including α3β1, α5β1, αIIbβ3, and αVβ3, specifically interact with the RGD sequence of their target proteins. […] To test this hypothesis, rhAPC-binding assays were performed with neutrophils in suspension. The assay buffer containing 1 mM Ca^2+ and 1 mM Mg^2+ was supplemented with 1 mM Mn^2+ to activate cell surface integrins.

B1: rhAPC: Recombinant human activated protein C obtained from Eli Lilly; FDA-approved drug for severe sepsis (protein)
chain 1: ANSFLEELRHSSLERECIEEICDFEEAKEIFQNVDDTLAFWSKHVDGDQCLVLPLEHPCASLCCGHGTCIDGIGSFSCDCRSGWEGRFCQREVSFLNCSLDNGGCTHYCLEEVGWRRCSCAPGYKLGDDLLQCHPAVKFPCGRPWKRMEKKRSHL
chain 2: LIDGKMTRRGDSPWQVVLLDSKKKLACGAVLIHPSWVLTAAHCMDESKKLLVRLGEYDLRRWEKWELDLDIKEVFVHPNYSKSTTDNDIALLHLAQPATLSQTIVPICLPDSGLAERELNQAGQETLVTGWGYHSSREKEAKRNRTFVLNFIKIPVVPHNECSEVMSNMVSENMLCAGILGDRQDACEGDSGGPMVASFHGTWFLVGLVSWGEGCGLLHNYGVYTKVSRYLDWIHGHIRDKEAPQKSWAP
LPS-induced pulmonary inflammation [1]: reduce
directional migration of neutrophils on FN towards fMLP (human neutrophils [2]): decreased
mortality in patients with severe sepsis [3]: significantly reduced
neutrophil migration through nitrocellulose micropore filter (neutrophil): inhibited
rhAPC binding to the neutrophil surface (human neutrophils [4]): significantly increased
